The sequences below were run on Escherichia coli TOP10 (assay: shrunken log2 fold change of peptide-encoding DNA abundance (4.5 h post-induction vs induction); higher = less antimicrobial activity (less host growth inhibition)). Conditions: time post-induction: 4.5 h; library: site-saturation at positions 5, 18, 19, 20.
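Also: peptides expressed intracellularly from a pBAD plasmid library in pooled LB shake-flask culture, induced with 0.3% L-arabinose, DNA abundance read by NGS, three biological replicates, DESeq2 with apeglm shrinkage.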

Sequence | shrunken log2 fold change
RRIRDRPPRLPRPRPRPDFNPRP | -0.188
RRIRLRPPRLPRPRPRPGNCPRP | -0.0913
RRIRKRPPRLPRPRPRPPEQPRP | 0.0815
RRIRNRPPRLPRPRPRPCGEPRP | 0.0369
RRIRLRPPRLPRPRPRPNVNPRP | -0.28
RRIRYRPPRLPRPRPRPCVGPRP | -1.87
RRIRQRPPRLPRPRPRPSIIPRP | -0.63
RRIRSRPPRLPRPRPRPWPNPRP | -0.13
RRIRCRPPRLPRPRPRPFNLPRP | -0.335
RRIRMRPPRLPRPRPRPMNTPRP | 0.206
RRIRFRPPRLPRPRPRPFPEPRP | -0.363
RRIRTRPPRLPRPRPRPVHEPRP | 0.247
RRIRDRPPRLPRPRPRPSFGPRP | -0.0644
RRIRERPPRLPRPRPRPRNIPRP | -0.095
RRIRVRPPRLPRPRPRPTIYPRP | -0.498
RRIRYRPPRLPRPRPRPLAQPRP | -0.17
RRIRKRPPRLPRPRPRPWRWPRP | 0.595
RRIRPRPPRLPRPRPRPMSYPRP | 0.296
RRIRARPPRLPRPRPRPNGSPRP | 0.304
RRIRVRPPRLPRPRPRPWTSPRP | -0.329
RRIRMRPPRLPRPRPRPTQEPRP | 0.433
RRIRARPPRLPRPRPRPGHMPRP | -0.0412

Sequence | shrunken log2 fold change
RRIRLRPPRLPRPRPRPQRCPRP | 0.487
RRIRCRPPRLPRPRPRPMFKPRP | -0.536
RRIRKRPPRLPRPRPRPCLFPRP | 0.0241
RRIRERPPRLPRPRPRPFMSPRP | -0.0685
RRIRMRPPRLPRPRPRPESQPRP | 2.59
RRIRDRPPRLPRPRPRPEHWPRP | 0.598
RRIRWRPPRLPRPRPRPYHIPRP | -0.96
RRIRERPPRLPRPRPRPFMWPRP | -0.262
RRIRMRPPRLPRPRPRPPCNPRP | 0.0147
RRIRTRPPRLPRPRPRPSGPPRP | -0.339
RRIRHRPPRLPRPRPRPECCPRP | 0.203
RRIRWRPPRLPRPRPRPHSFPRP | -0.266
RRIRTRPPRLPRPRPRPGAHPRP | 0.0457
RRIRPRPPRLPRPRPRPNEDPRP | -0.509
RRIRTRPPRLPRPRPRPAFYPRP | 0.116
RRIRIRPPRLPRPRPRPAPRPRP | 0.733
RRIRSRPPRLPRPRPRPDLVPRP | 0.0452
RRIRLRPPRLPRPRPRPCAEPRP | 0.395
RRIRTRPPRLPRPRPRPMSSPRP | -0.00458
RRIRARPPRLPRPRPRPYTPPRP | -0.373
RRIRERPPRLPRPRPRPSYSPRP | -0.147
RRIRVRPPRLPRPRPRPAIGPRP | 0.045

Sequence | shrunken log2 fold change
RRIRGRPPRLPRPRPRPQMGPRP | 0.339
RRIRSRPPRLPRPRPRPYFIPRP | -1.06
RRIRHRPPRLPRPRPRPSRYPRP | -1
RRIRYRPPRLPRPRPRPHVPPRP | -0.277
RRIRTRPPRLPRPRPRPIQIPRP | 0.0193
RRIRPRPPRLPRPRPRPAKQPRP | 0.0651
RRIRFRPPRLPRPRPRPSRFPRP | -0.0395
RRIRPRPPRLPRPRPRPCKPPRP | -0.136
RRIRMRPPRLPRPRPRPGNGPRP | 0.885
RRIRYRPPRLPRPRPRPHVMPRP | -0.644
RRIRNRPPRLPRPRPRPYPPPRP | -0.671
RRIRHRPPRLPRPRPRPLFQPRP | -0.108
RRIRRRPPRLPRPRPRPAHFPRP | 0.0399
RRIRNRPPRLPRPRPRPSQSPRP | -0.169
RRIRARPPRLPRPRPRPPAIPRP | 0.382
RRIRCRPPRLPRPRPRPVIWPRP | 0.0816
RRIRLRPPRLPRPRPRPHGSPRP | -0.0692
RRIRQRPPRLPRPRPRPYINPRP | -0.299
RRIRPRPPRLPRPRPRPYFCPRP | -0.293
RRIRGRPPRLPRPRPRPRDDPRP | 0.536
RRIRWRPPRLPRPRPRPLVQPRP | 0.23
RRIRWRPPRLPRPRPRPKCPPRP | -0.00278

Sequence | shrunken log2 fold change
RRIRGRPPRLPRPRPRPEYEPRP | 0.165
RRIRSRPPRLPRPRPRPYEVPRP | 0.07
RRIRHRPPRLPRPRPRPPWHPRP | -0.0707
RRIRDRPPRLPRPRPRPNNFPRP | -0.418
RRIRMRPPRLPRPRPRPLFNPRP | -0.439
RRIRDRPPRLPRPRPRPIVCPRP | 0.0446
RRIRERPPRLPRPRPRPCKNPRP | -0.121
RRIRMRPPRLPRPRPRPSVKPRP | 0.185
RRIRHRPPRLPRPRPRPDCWPRP | 0.0871
RRIRMRPPRLPRPRPRPSKLPRP | -0.0679
RRIRQRPPRLPRPRPRPKPCPRP | -0.273
RRIRGRPPRLPRPRPRPVTPPRP | 1.24
RRIRERPPRLPRPRPRPFWYPRP | -0.000951
RRIRLRPPRLPRPRPRPMGMPRP | 0.0771
RRIRNRPPRLPRPRPRPDGEPRP | -0.00776
RRIRHRPPRLPRPRPRPDRVPRP | -0.0183
RRIRHRPPRLPRPRPRPMRSPRP | -0.00134
RRIRGRPPRLPRPRPRPEDKPRP | 1.23
RRIRRRPPRLPRPRPRPEELPRP | 0.338
RRIRIRPPRLPRPRPRPRYSPRP | -0.484
RRIRCRPPRLPRPRPRPRNSPRP | -0.113
RRIRIRPPRLPRPRPRPLSVPRP | -0.254

Sequence | shrunken log2 fold change
RRIRTRPPRLPRPRPRPDWQPRP | -0.0206
RRIRLRPPRLPRPRPRPINNPRP | -0.705
RRIRRRPPRLPRPRPRPYKIPRP | -0.158
RRIRGRPPRLPRPRPRPSQEPRP | 0.172
RRIRKRPPRLPRPRPRPGPYPRP | 0.104
RRIRFRPPRLPRPRPRPTQNPRP | 0.541
RRIRERPPRLPRPRPRPELGPRP | 0.0169
RRIRPRPPRLPRPRPRPEQNPRP | -0.199
RRIRPRPPRLPRPRPRPPATPRP | 0.939
RRIRLRPPRLPRPRPRPMFEPRP | -0.00818
RRIRCRPPRLPRPRPRPTATPRP | 0.299
RRIRPRPPRLPRPRPRPRRFPRP | 0.0399
RRIRGRPPRLPRPRPRPKTDPRP | 0.797
RRIRQRPPRLPRPRPRPIQKPRP | -0.0187
RRIRSRPPRLPRPRPRPWIYPRP | -0.187
RRIRLRPPRLPRPRPRPCNGPRP | -0.00674
RRIRMRPPRLPRPRPRPRITPRP | 0.122
RRIRYRPPRLPRPRPRPGNMPRP | -0.55
RRIRRRPPRLPRPRPRPLYRPRP | -0.121
RRIRERPPRLPRPRPRPTELPRP | -0.577
RRIRMRPPRLPRPRPRPNLCPRP | 0.015
